Laboratory results published in US20240115497A1, “INHALABLE PHARMACEUTICAL POWDER FORMULATION AND PREPARATION METHOD THEREFOR” (ZHEJIANG CUIZE PHARMACEUTICAL TECHNOLOGY CO., LTD., priority 2021, published 2024).

Key:
[1] = Specific surface area by inverse gas chromatography-surface energy analyzer; type: physicochemical
From the text: The specific surface areas of the bulk drug semaglutide, excipient leucine and powder formulation were respectively detected by an inverse gas chromatography-surface energy analyzer.

[2] = injectable and oral formulations; cited from earlier work

Compound: CC(C)C[C@H](N)C(=O)O [Excipient leucine, leucine]
- Specific surface area [1]: 0.506 m^2/g

Compound: Semaglutide [Bulk drug semaglutide]
- Specific surface area [1]: 1.816 m^2/g
- bioavailability [2]: about 1%
